One protein from paper PMC11229311, “Structural and functional investigation of the DHH/DHHA1 family proteins in Deinococcus radiodurans” (Nucleic Acids Research, 2024) can be followed below.

This data set deals with the molecule itself. The data set is described as follows: SEC; analytical gel filtration, Superdex 75 10/300 GL, 20 mM Tris pH 8.0, 100 mM NaCl, 1 mM TCEP; 300 ul of 1 mM protein loaded; calibrated with protein standards (6.5-75 kDa). For orientation: Size exclusion chromatography separates by hydrodynamic size, large species first.

B1: Deinococcus radiodurans RecJ-like (DrRecJ-like), wild type (enzyme, UniProt Q9RW43 1-338, looked up)
chain: MTAENSATPDYRRNVGAVADALLAHPGPIVVLSHENPDGDALGSVLGLSRALRTLGKTVLAPMTVPHYLSFLPQPGELTAPLESWPQGALAAVLDVDNNDPVRVAGADLTQFDGPVVNVDHHGTNLRRADAGVVDPSKPAAAMMVADVIDALGAPWSEAVATPLMLGLNTDTGNFAFDSVSAETFECAARLRAHGARIGWLNDQMRQNPQSYYLLLREVLGKLEFLHGGRVVQTRVDEEMLARAGATWEQVENYVSMLRNAEGAQLAVMAKDYGDRVKFSLRSRGPVSAQNIAVALGGGGHVPAAGATVISSYAEARARLDAAIEAELARVDAQATAE
notes: RecJ-like protein (DR_0826) of Deinococcus radiodurans, full-length gene, residues 1-338, amplified from genomic DNA; DHH and DHHA1 domains; Tag-free after TEV cleavage of the His-MBP-TEV fusion (vector pET28-HMT); also called DrRecJ-like^wt; DrNrnA; source: E. coli Rossetta (DE3), purified (His-tag column, HiTrap Q, TEV tag removal, Superdex 75); not shown: His6, N-terminal, cleaved; MBP, …
Regarding B1, the “stoichiometry N” value came out at 2.

As a reminder, the stoichiometry N is the number of molecules, sites or subunits per partner or assembly.
